# According to PMC10050235, “Structural basis of Ty1 integrase tethering to RNA polymerase III for targeted retrotransposon integration” (Nature Communications, 2023):
# T1: Pol III subunit C37 (within purified Pol III) (S. cerevisiae (endogenous in strain …, UniProt P36121 1-282))
# T1 construct: RNA polymerase III subunit C37, S. cerevisiae; Subunit of m2, written alone for the pairs that touch in the structures; source: endogenous, S. cerevisiae strain SC1613, purified as part of Pol III (IgG Sepharose, TEV elution, Mono-Q)
# T1 sequence (looked up): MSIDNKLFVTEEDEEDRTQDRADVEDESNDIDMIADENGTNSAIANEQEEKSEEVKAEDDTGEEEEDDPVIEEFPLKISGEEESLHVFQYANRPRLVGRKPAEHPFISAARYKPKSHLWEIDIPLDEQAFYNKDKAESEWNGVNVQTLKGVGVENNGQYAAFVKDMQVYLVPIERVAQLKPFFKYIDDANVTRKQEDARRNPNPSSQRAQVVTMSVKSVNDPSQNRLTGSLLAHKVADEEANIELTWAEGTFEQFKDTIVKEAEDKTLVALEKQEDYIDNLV
# T2: Pol III subunit C128 (within purified Pol III) (S. cerevisiae (endogenous in strain …, UniProt P22276 1-1149))
# T2 construct: RNA polymerase III second largest subunit C128, S. cerevisiae; Subunit of m2, written alone for the pairs that touch in the structures; source: endogenous, S. cerevisiae strain SC1613, purified as part of Pol III (IgG Sepharose, TEV elution, Mono-Q)
# T2 sequence (looked up): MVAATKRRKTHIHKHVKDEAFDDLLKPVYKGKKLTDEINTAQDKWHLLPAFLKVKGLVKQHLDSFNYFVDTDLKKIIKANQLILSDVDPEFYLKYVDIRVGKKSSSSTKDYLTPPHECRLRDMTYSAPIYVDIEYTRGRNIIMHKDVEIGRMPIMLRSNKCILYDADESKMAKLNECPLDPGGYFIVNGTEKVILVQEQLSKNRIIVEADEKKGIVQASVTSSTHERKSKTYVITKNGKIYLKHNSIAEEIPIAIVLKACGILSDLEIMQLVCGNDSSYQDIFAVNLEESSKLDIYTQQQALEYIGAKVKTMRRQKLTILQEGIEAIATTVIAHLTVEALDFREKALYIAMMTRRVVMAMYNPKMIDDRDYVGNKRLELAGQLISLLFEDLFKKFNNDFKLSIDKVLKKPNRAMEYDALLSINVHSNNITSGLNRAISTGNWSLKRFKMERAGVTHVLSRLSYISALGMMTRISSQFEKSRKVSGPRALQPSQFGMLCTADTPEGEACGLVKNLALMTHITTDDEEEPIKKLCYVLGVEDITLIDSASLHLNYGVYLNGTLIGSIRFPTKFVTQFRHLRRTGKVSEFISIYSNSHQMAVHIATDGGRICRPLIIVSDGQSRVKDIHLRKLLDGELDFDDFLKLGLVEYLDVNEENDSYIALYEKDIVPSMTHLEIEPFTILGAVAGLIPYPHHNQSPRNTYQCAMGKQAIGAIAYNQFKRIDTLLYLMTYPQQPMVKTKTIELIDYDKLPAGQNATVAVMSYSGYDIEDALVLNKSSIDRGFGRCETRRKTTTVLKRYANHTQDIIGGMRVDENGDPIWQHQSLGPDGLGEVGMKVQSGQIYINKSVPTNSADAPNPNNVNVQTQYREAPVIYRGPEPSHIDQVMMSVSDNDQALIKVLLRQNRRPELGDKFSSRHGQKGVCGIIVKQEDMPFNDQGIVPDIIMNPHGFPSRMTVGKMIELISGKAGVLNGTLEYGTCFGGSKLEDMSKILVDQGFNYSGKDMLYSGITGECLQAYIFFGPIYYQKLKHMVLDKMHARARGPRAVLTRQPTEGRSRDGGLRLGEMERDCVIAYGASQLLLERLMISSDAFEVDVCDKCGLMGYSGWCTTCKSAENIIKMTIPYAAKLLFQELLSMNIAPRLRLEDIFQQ
# T3: Pol III subunit C160 (within purified Pol III) (S. cerevisiae (endogenous in strain …, UniProt P04051 1-1460))
# T3 construct: RNA polymerase III largest subunit C160, S. cerevisiae; Subunit of m2, written alone for the pairs that touch in the structures; source: endogenous, S. cerevisiae strain SC1613, purified as part of Pol III (IgG Sepharose, TEV elution, Mono-Q)
# T3 sequence (looked up): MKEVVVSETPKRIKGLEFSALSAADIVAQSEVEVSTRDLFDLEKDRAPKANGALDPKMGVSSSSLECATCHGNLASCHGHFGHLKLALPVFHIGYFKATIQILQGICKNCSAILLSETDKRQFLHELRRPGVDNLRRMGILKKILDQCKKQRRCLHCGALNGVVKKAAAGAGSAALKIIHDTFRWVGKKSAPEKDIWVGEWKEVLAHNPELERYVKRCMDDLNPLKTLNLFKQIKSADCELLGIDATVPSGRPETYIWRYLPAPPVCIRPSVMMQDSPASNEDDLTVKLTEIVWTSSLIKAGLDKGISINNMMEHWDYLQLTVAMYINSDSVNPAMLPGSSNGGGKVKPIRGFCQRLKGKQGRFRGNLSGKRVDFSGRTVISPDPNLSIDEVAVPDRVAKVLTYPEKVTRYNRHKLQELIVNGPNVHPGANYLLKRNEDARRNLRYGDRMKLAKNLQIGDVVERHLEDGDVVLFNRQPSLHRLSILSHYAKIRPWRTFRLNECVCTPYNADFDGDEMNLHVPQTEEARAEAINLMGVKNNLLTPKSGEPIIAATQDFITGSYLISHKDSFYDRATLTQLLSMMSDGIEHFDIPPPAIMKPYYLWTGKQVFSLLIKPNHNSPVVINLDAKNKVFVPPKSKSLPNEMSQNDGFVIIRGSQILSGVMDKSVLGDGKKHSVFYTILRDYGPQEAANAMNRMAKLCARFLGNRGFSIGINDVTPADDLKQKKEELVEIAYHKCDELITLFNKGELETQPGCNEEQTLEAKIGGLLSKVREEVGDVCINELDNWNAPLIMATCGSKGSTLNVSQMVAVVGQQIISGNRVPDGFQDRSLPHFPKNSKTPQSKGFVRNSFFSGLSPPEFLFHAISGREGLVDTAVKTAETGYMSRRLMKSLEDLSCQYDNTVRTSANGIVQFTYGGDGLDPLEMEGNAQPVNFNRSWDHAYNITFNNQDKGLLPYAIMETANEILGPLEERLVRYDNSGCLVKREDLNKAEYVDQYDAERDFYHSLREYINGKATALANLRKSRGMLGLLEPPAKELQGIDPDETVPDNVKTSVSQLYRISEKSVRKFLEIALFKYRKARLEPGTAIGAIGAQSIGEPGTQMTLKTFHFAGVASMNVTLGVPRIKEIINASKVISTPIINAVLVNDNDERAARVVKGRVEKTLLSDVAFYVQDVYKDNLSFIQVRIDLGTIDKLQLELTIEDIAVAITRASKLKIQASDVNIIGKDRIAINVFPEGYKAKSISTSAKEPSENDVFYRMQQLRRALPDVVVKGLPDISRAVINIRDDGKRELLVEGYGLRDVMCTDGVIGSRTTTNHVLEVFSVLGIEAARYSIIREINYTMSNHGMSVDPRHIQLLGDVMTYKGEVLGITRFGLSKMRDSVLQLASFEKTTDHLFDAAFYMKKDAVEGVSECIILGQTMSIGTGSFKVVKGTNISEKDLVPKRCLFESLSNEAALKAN
# B1: Pol III subunit C53 (within purified Pol III) (natural protein, UniProt P25441 1-422, looked up)
# chain: MSSNKGNGRLPSLKDSSSNGGGSAKPSLKFKPKAVARKSKEEREAAASKVKLEEESKRGNDKKHFNNKNKRVTGAGGQQRRMAKYLNNTHVISSGPLAAGNFVSEKGDLRRGFIKSEGSGSSLVQKGLETIDNGAESSENEAEDDDNEGVASKSKKKFNMGKEFEARNLIEDEDDGESEKSSDVDMDDEEWRSKRIEQLFPVRPVRVRHEDVETVKREIQEALSEKPTREPTPSVKTEPVGTGLQSYLEERERQVNEKLADLGLEKEFQSVDGKEAAAELELLNADHQHILRKLKKMNNKPERFMVFQLPTRLPAFERPAVKEEKEDMETQASDPSKKKKNIKKKDTKDALSTRELAGKVGSIRVHKSGKLSVKIGNVVMDIGKGAETTFLQDVIALSIADDASSAELLGRVDGKIVVTPQI
# notes: RNA polymerase III subunit C53, S. cerevisiae; N-terminal low-complexity region C53-Nt is residues 1-274; Subunit of m2, written alone for the pairs that touch in the structures; source: endogenous, S. cerevisiae strain SC1613, purified as part of Pol III (IgG Sepharose, TEV elution, Mono-Q)
# How the values were obtained:
# [1] = target: RNA polymerase III (Pol III), 17 subunits, isolated from yeast (S. cerevisiae (endogenous in strain SC1613)) (UniProt P04051); test: native gel or EMSA; recombinant IN1 mixed with Pol III isolated from yeast, free of nucleic acids; native gel electrophoresis
# [2] = target: B1; test: cryo-EM structure; Pol III and IN1 both at 0.5 uM in 20 mM HEPES-NaOH pH 7.5, 170 mM NaCl, 2 mM DTT, 30 min at 4 °C; crosslinked with 0.06% glutaraldehyde; no nucleic acids (maps A-C); details: both partners purified
# [3] = target: T1, Pol III subunit C37 (within purified …); test: as above; details: both partners purified
# [4] = target: T2, Pol III subunit C128 (within purified …); test: as above; details: both partners purified
# [5] = target: T3, Pol III subunit C160 (within purified …); test: cryo-EM structure; Pol III-DNA (0.4 uM, mismatched transcription bubble) mixed with 0.6 uM IN1, 30 min at 20 °C in 10 mM Hepes pH 7.5, 150 mM NaCl, 5 mM MgCl2, 5 mM DTT; 8 mM CHAPSO on the grid (map D); details: both partners purified
# [6] = target: T3, Pol III subunit C160 (within purified …); test: cryo-EM structure; Pol III and IN1 both at 0.5 uM in 20 mM HEPES-NaOH pH 7.5, 170 mM NaCl, 2 mM DTT, 30 min at 4 °C; crosslinked with 0.06% glutaraldehyde; no nucleic acids (maps A-C); details: both partners purified
molecule,measurement,setting,value
"Ty1 integrase (IN1), recombinant (from UniProt Q12414 583-1217) (enzyme)",stoichiometry N,[1],1
"Pol III subunit C11 (within purified Pol III) (natural protein, UniProt Q04307 1-110, looked up, RNA polymerase III subunit C11, S. cerevisiae; two Zn-ribbons (residues 1-36 and 64-110) joined by a linker (37-63); Subunit of m2, written alone for the pairs that touch in the structures; source: endogenous, S. cerevisiae strain SC1613, purified as part of Pol III (IgG Sepharose, TEV elution, Mono-Q)) MLSFCPSCNNMLLITSGDSGVYTLACRSCPYEFPIEGIEIYDRKKLPRKEVDDVLGGGWDNVDQTKTQCPNYDTCGGESAYFFQLQIRSADEPMTTFYKCVNCGHRWKEN",binding result,[2],binds
same,binding result,[3],binds
same,binding result,[4],binds
same,binding result,[5],binds
B1,binding result,[6],binds
